B1: PAX-interacting protein 1 (Homo sapiens), Q6ZW49-1 (parent)
chain: MVFLQNHVRFFLESLPAFLRVLIQAGALCWSLPELSQGEVGKGACPAEVGKHRDHLPSSDPVLMQAEASVVMCWVSSEDRSALWALVTFYGGDCQLTLNKKCTHLIVPEPKGEKYECALKRASIKIVTPDWVLDCVSEKTKKDEAFYHPRLIIYEEEEEEEEEEEEVENEEQDSQNEGSTDEKSSPASSQEGSPSGDQQFSPKSNTEKSKGELMFDDSSDSSPEKQERNLNWTPAEVPQLAAAKRRLPQGKEPGLINLCANVPPVPGNILPPEVRGNLMAAGQNLQSSERSEMIATWSPAVRTLRNITNNADIQQMNRPSNVAHILQTLSAPTKNLEQQVNHSQQGHTNANAVLFSQVKVTPETHMLQQQQQAQQQQQQHPVLHLQPQQIMQLQQQQQQQISQQPYPQQPPHPFSQQQQQQQQAHPHQFSQQQLQFPQQQLHPPQQLHRPQQQLQPFQQQHALQQQFHQLQQHQLQQQQLAQLQQQHSLLQQQQQQQIQQQQLQRMHQQQQQQQMQSQTAPHLSQTSQALQHQVPPQQPPQQQQQQQPPPSPQQHQLFGHDPAVEIPEEGFLLGCVFAIADYPEQMSDKQLLATWKRIIQAHGGTVDPTFTSRCTHLLCESQVSSAYAQAIRERKRCVTAHWLNTVLKKKKMVPPHRALHFPVAFPPGGKPCSQHIISVTGFVDSDRDDLKLMAYLAGAKYTGYLCRSNTVLICKEPTGLKYEKAKEWRIPCVNAQWLGDILLGNFEALRQIQYSRYTAFSLQDPFAPTQHLVLNLLDAWRVPLKVSAELLMSIRLPPKLKQNEVANVQPSSKRARIEDVPPPTKKLTPELTPFVLFTGFEPVQVQQYIKKLYILGGEVAESAQKCTHLIASKVTRTVKFLTAISVVKHIVTPEWLEECFRCQKFIDEQNYILRDAEAEVLFSFSLEESLKRAHVSPLFKAKYFYITPGICPSLSTMKAIVECAGGKVLSKQPSFRKLMEHKQNSSLSEIILISCENDLHLCREYFARGIDVHNAEFVLTGVLTQTLDYESYKFN

Variants of: B1
Details: with h2ax_human H2AX

| effect of a mutation on the interaction | Variant |
| --- | --- |
| disrupting interaction | R876D |

Variants of: B1
Details: with h2ax_human H2AX
Remark: another data set of the same source

| effect of a mutation on the interaction | Variant |
| --- | --- |
| increasing interaction | T1020A |

Variants of: B1
Details: with h2ax_human H2AX
Remark: another data set of the same source

| effect of a mutation on the interaction | Variant |
| --- | --- |
| disrupting interaction | T838A |

Variants of: B1
Details: with h2ax_human H2AX
Remark: another data set of the same source

| effect of a mutation on the interaction | Variant |
| --- | --- |
| disrupting interaction | K879M |

Variants of: B1
Details: with h2ax_human H2AX
Remark: another data set of the same source

| effect of a mutation on the interaction | Variant |
| --- | --- |
| decreasing interaction | E1016A |

Source: IntAct's records for PubMed 22064073
